# Assay results taken from US20060019338A1.
# Tests used:
# [1] = target: squirrel monkey prokineticin receptor 2 (PKR2) (squirrel monkey); assay: cell-based or functional assay
# [2] = target: rhesus monkey prokineticin receptor 1 (PKR1) (rhesus monkey); assay: cell-based or functional assay
calcium mobilization (aequorin luminescence) EC50 [1],calcium mobilization (aequorin luminescence) EC50 [2],Substance
10 nM,,recombinant human PK1 (from UniProt P58294 20-105) (ligand)
,10 nM,recombinant human PK2 (from UniProt Q9HC23 28-129) (ligand)
